B1: DH270.IA4 (antibody, V domains shown)
VH: QVQLVQSGAEVKKPGASVKVSCKASGYTFTDYYIHWVRQAPGQGLEWMGWINPNTGRTNYAQKFQGRVTMTRDTSISTAYMELSRLRSDDTAVYYCARGGWIGLYYDSSGYPNFDYWGQGTLVTVSS
VL: QSALTQPASVSGSPGQSITISCTGTSYDVGSYNLVSWYQQHPGKAPKLMIYEVSKRPSGVSNRFSGSKSGNTASLTISGLQAEDEADYYCCSYAGSSTVIFGGGTKLTVL
B2: DH270.1 (antibody, V domains shown)
VH: B1 VH with V11M, T69I, R87T, R98T
VL: B1 VL with L48Y, S54N
B3: DH270.6 (antibody, V domains shown)
VH: QVQLVQSGAQMKNPGASVKVSCAPSGYTFTDFYIHWLRQAPGQGLQWMGWMNPQTGRTNTARNFQGRVIMTRDTSIGTAYMELRSLTSDDTAIYYCTTGGWISLYYDSSYYPNFDHWGQGTLLTVSS
VL: TSLLTQPASVSGSPGQSITISCTGTKYDVGSHDLVSWYQQYPGKVPKYMIYEVNKRPSGVSNRFSGSKSGNTASLTISGLRAEDEADYYCCSFGGSATVVCGGGTKVTVL
B4: DH270.2 (antibody, V domains shown)
VH: QVQLVQSGAEMKKPGASVRVSCKASGYTFTDYYIHWVRQAPGQGPEWMGWINPSTGRTNSPQKFQGRVIMTRDTSISTAYMDLNRLTSDDTAMYYCTTGGWIGLYSDTSGYPNFDYWGQGTLVTVSS
VL: B1 VL with S26N, A45V, L48Y, M49I, S54N, T98I, V99I, I100F, L110I
B5: DH270.3 (antibody, V domains shown)
VH: QVQLVQSGAEMKNPGASVKVSCAASGYTFTDFYIHWVRLAPGQGLEWMGWMNPKTGRTNNAQNFQGRVIMTRDTSIGTAYMELRRLTSDDTAVYYCVTGGWISPYYDSSYYPNFDHWGQGTLVTVSS
VL: B3 VL with T1Q, L3A, K26S, S31K, H32F, Y41H, V45A, R56W, N62H, R81Q
B6: DH270.4 (antibody, V domains shown)
VH: B5 VH with Q1E, T28G, Q43H, E46Q, N63D, M70L, V123I
VL: QSALTQPASVSGSPGQSITISCTGTSYDVAKFDLVSWFQQHPGKAPKYMIYEVNKWPSGVSHRFSGSKSGNTASLTISGLQAEDEADYYCCSFGGSATVVCGGGTKVTVL
B7: DH270.5 (antibody, V domains shown)
VH: B5 VH with M11V, A24P, M48L, N60Q, A61G, R85S, G100A, P104D
VL: LPVLTQPASVSGSPGQSITISCTGTIYDVGKFDLVSWYQHHPGKAPKYLIYEVKKWPSGVSHRFSGSKSGNTASLTISGLQVEDEADYYCCSFGGSAAVVCGGGTKVTVL

Substitutions are numbered along the chain they refer to.

One experiment has as its target Man9-V3 glycopeptide. The experiment is described as follows: biolayer interferometry, biotinylated peptide on streptavidin sensors. For orientation: Biolayer interferometry detects binding as a change in optical thickness at a sensor tip.
In the case of B1, the dissociation constant Kd was over 10000 nM.
B2 showed an equilibrium dissociation constant (Kd) of 331 nM.
For B3, the dissociation constant (Kd) stood at 188 nM.

The target in another experiment is Man9-V3 glycopeptide. The experiment is described as follows: biolayer interferometry, biotinylated Man9-V3 on streptavidin sensors, antibody in solution, global fit to the bivalent avidity model.
Regarding B2, the off-rate constant (koff) turned out to be 0.00051 s⁻¹ and the kon turned out to be 1540 M⁻¹ s⁻¹.
Take B4: the koff came to 0.0081 s⁻¹ and the on-rate (kon) was 1710 M⁻¹ s⁻¹.
B5: the off-rate constant (koff) is 0.000778 s⁻¹ and the kon stood at 4000 M⁻¹ s⁻¹.
B3 registered a koff of 0.00037 s⁻¹ and an on-rate (kon) of 1970 M⁻¹ s⁻¹.
On to B6, for which the off-rate (koff) was 0.00052 s⁻¹ and the kon is 1500 M⁻¹ s⁻¹.
Turning to B7, the koff amounted to 0.00091 s⁻¹ and the association rate constant (kon) stood at 3300 M⁻¹ s⁻¹.

The next experiment concerns the target Man9-V3 glycopeptide. The experiment is described as follows: biolayer interferometry, biotinylated Man9-V3 on streptavidin sensors, antibody in solution; inset curves (100, 50, 25 µg/mL) after subtraction of the palivizumab signal.
In turn, B1 returned a Kd of over 10000 nM.

By Kd is commonly meant a measure of binding affinity in units of concentration. High values mean a looser complex, low ones a tighter complex. The koff is a measure of how fast the partners let go of each other. One may read the kon as the second-order rate constant of association. High values mean fast association, low ones slow association.

(Values after patent US20240150445A1.)
